In a protein production outcome set (Wang et al. 2014):

Assay: label from the status in PepcDB records

Sequence	protein production
MPLRLDIKRKLTAMSDRVKSVDLHPTEPWMLASLYNGSVCVWNHETQTLVKTFEVCDLPVRAAKFVARKNWVVTGADDMQIRVFNYNTLERVHMFEAHSDYIRCIAVHPTQPFILTSSDDMLIKLWDWDKKWSCSQVFEGHTHYVMQIVINPKDNNQFASASLDRTIKVWQLGSSSPNFTLEGHEKGVNCIDYYSGGDKPYLISGADDRLVKIWDYQNKTCVQTPEGHAQNVSCATFHPELPIIITGSEDGTVRIWHSSTYRLESTLNYGMERVWCVASLRGSNNVALGYDEGSIIVKLGREEPAMSMDANGKIIWAKHSEVQQANLKAMGDTEIKDGERLPLAVKDMGSCEIYPQTIQHNPNGRFVVVCGDGEYIIYTAMALRNKSFGSAQEFAWAHDSSEYAIRESNSVVKIFKNFKEKKSFKPDFGAESIYGGFLLGVRSVNGLAFYDWENTELIRRIEIQPKHIFWSDSGELVCIATEESFFILKYLSEKVLAAQETHEGVTEDGIEDAFEVLGEIQEIVKTGLWVGDCFIYTSSVNRLNYYVGGEIVTIAHLDRTMYLLGYIPKDNRLYLGDKELNIVSYSLLVSVLEYQTAVMRRDFSMADKVLPTIPKEQRTRVAHFLEKQGFKQQALTVSTDPEHRFELALQLGELKIAYQLAVEAESEQKWKQLAELAISKCQFSLAQECLHHAQDYGGLLLLATASGNASMVNKLAEGAERDGKNNVAFMSYFLQGKLDACLELLIRTGRLPEAAFLARTYLPSQVSRVVKLWRENLSKVNQKAAESLADPTEYENLFPGLKEAFVVEEWVKETHADLWPAKQYPLVTPNEERNVMEEAKRFQPSRATAQQEPDGKPASSPVIMASQTTHKEEKSFQELEDDLDTMELEDIDTTDINLDEDILDD	failed
MPLVLHHPERQAELGSGLRDGGGAALRPPGRLVKQMDFTEAYADTCSTVGLAAREGNVKVLRKLLKKGRSVDVADNRGWMPIHEAAYHNSVECLQMLINADSSENYIKMKTFEGFCALHLAASQGHWKIVQILLEAGADPNATTLEETTPLFLAVENGQIDVLRLLLQHGANVNGSHSMCGWNSLHQASFQENAEIIKLLLRKGANKECQDDFGITPLFVAAQYGKLESLSILISSGANVNCQALDKATPLFIAAQEGHTKCVELLLSSGADPDLYCNEDSWQLPIHAAAQMGHTKILDLLIPLTNRACDTGLNKVSPVYSAVFGGHEDCLEILLRNGYSPDAQACLVFGFSSPVCMAFQKDCEFFGIVNILLKYGAQINELHLAYCLKYEKFSIFRYFLRKGCSLGPWNHIYEFVNHAIKAQAKYKEWLPHLLVAGFDPLILLCNSWIDSVSIDTLIFTLEFTNWKTLAPAVERMLSARASNAWILQQHIATVPSLTHLCRLEIRSSLKSERLRSDSYISQLPLPRSLHNYLLYEDVLRMYEVPELAAIQDG	failed
MPMSFSLTQMILISAAYLAVLFGVAWISERGMIPRSIIRHPLTYTLSLGVYASAWAFYGTVGLAYQYGYGFLSSYLGVSGAFLLAPVLLYPILKITRTYQLSSLADLFAFRFRSTWAGALTTIFMLIGVLPLLALQIQAVADSIGILTHEPVQHRVALSFCALITLFTIFFGSRHIATREKHEGLVFAIAFESVIKLIAIGGVGLYALYGVFDGPQQLELWLLQNQTALAALHTPLQEGPWRTLLLVFFASAIVMPHMYHMTFTENLNPRALVSASWGLPLFLLLMSLAVPLILWAGLKLGATTNPEYFTLGIGIAANSPALALLAYVGGLSAASGLIIVTTLALSGMALNHLVLPLYQPPAEGNIYRWLKWTRRALIVAIIMAGYAFYLLLGAEQDLANLGIVAFVATLQFLPGVLSVLYWPTANRRGFIAGLLAGILVWLVTMLLPLIGNLQGFYIPLLNMIYVLDDTSWHMAAIASLAANVLMFTLISLFTNASTEEASAAEACAVDNVRRPQRRELHAASPQEFATQLAKPLGAKAAQKEVEQALRDLYLPFDERRPYALRRLRDRIEANLSGLMGPSVAQDMVETFLPYKAGGENYVTEDIHFIESRLEDYHSRLTGLAAELDALRRYHRQTLQELPMGVCSLAKDQEILMWNKAMEELTGIPAQHVVGSRLSTITNPWKDLLQGFINLPDEHLHKQHLALDGQTRWLNLHKAAIDEPLAPGNSGLVLLVEDLTETQTLEDKLVHSERLASIGRLAAGVAHEIGNPITGIACLAQNLREEREEDGELTEISEQILEQTKRISRIVQSLMSFAHAGSHQHNDEAVCLAEVAQDAIGLLALNRRNFEVQFFNLCDPDHWVDGDPQRLAQVLINLLSNARDASPPGSAVRVKSEAFEHTVDLIVEDEGSGIPKNIMDRLFEPFFTTKDPGEGTGLGLALVYSIVEEHYGQITIDSPADPQSQRGTRIRVTLPRHVEATSAVN	failed
MPMSQSTFTILLGGELSLTERLRDAIEDSRFIAADGGMRHAAALGITPELWVGDFDSTPADLADAFPDVPKQPYPAAKAATDGEIAVAEAIARGARRLILAGALGGERSDHALQHLLSAVSLAEEGFDLLLTSGKEEAVPLVAGTIELDLPKGSLFSVPGFSELRGLAIENARYPLADFHLPFGSSRTISNVAEGKVRFSLRSGRAIVLARPYDLSGV	failed
MPMTIKRATWNNGPDLAFDINNKANAAIEKYGREAVINAALGTLLDDKGKIIALPSVYDRLDEMDRSHIASYAPIEGEKDYRKIVIDTLFGPYKPEGYISAIATPGGTGAIRSAIFSYLDEGDPLICHDYYWAPYRKICEEFGRNFKTFEFFTDDFAFNIDVYKEAIDEGIRDSDRIASLINSPGNNPTGYSLSDEEWDEVITFLKEKAEDKDKKITLIVDVAYLEFAGDGDQQRKFFEKFSNLPRNLFVVVAFSMSKSHTAYGLRSGAAVGISSSKEIIEEFEASLAHSARCNWSNGTHAAQNILIELERAENKKIYEQELVDLRNMLKSRADVFVTAAKENKLTMIPYFGGFFTFIPTDKAFDIVKDLEKENIFTIPSAKGIRVAICGVGEEKIPKLVQRLAFYTNKK	not failed
MPNCEKEALVVAAAMEKGTIHPIGRYLLPQYWEGPPLCFEYFPGRGLTATVSCIESVTEGNKLRKSSLGSVEFITSLFESQDQSREIKNAVNSSLYGNDFVHALLSLYQKVTLIHLEDQPHQPFYRPISLNLRHVMIKINTFIQFFFRMNQISNHEIGSFSAFATQFFSFLTHYSILPNPINSLNPTLRPLVPCTIHELAPPPAPPPFPSCKSAM	failed
MPPDEIEIEPVRQSSDKMLYCEAESPPTVEKVKPARENSETDLEIEDDEKFFTTGQKELYLEACKLMGVVPVSYFIRNMEESYVNLNHHGLGPRGTKAIAIALVSNMAVTKLELEDNCIMEEGVLSLVEMLQENYYLQEMNISNNHLGLEGARIISDFFERNSSSIWSLELSGNDFKEDSAALLCQALSTNYQIKKLDLSHNQFSDVGGEHLGQMLAINVGLTSLDLSWNNFHTRGAVALCNGLRGNVTLTKLDLSMNGFGNEVALALGEVLRLNRCLVYLDIGGNDIGNEGASKISKGLESNESLRVLKLFLNPINMDGAILLILAIKRNPKSRMEELDISNVLVSEQFMKTLDGVYAVHPQLDVVFKAVQGLSPKKTIFLLTNPMKLIQSYADQHKITIVDFFKSLNPTGTMKMSVDEFQKVMIEQNKVPLNQYQVREVIKKLDEKTGMVNFSFLNTMKP	failed
MPPFMSGLRAVSSLLSCRNAISRKLVSRSGIPRGSFVSDQIRRFGSLSGVERCSSNWLMSNDDARVSFRRLPGSVSLLQRRHFLGCGDGEEGGGELSKIYEERRVLGYTPEQMFNVVAAVDLYHGFVPWCQRSEVLKEYPDGSFDAELEIGFKFLVESYISHVESERPKWIKTTARDTGLFDHLINLWQFKPGPIPGTCDLHFHVDFKFNSPLYRQVASMFFKEVASRLVGAFSDRCRLVYGPGVRVDENAYEQRA	failed
MPPLGRPCHLAAMDSTDGPLDLIAERAEAAWSRGDRHRAMTLARLGLGQDDGHPRLLAVLGAFEQAEGRSAAAAGLFRRAMARCGDDPLMLHNLGVALRGAGLIDAAAAAWEGVLRGCPQRFATLFNLARLRDDQGRGEEALALYRRACLADPAASDAAYNLGNLLARRGALAQAAEVLGKAASVTPHDARIQTNLGIVLRRLGDAAGALACQRRAVALDPDLADAQWNLANLLLALDDYDEGFARYEWRKRRAPWRLVDPPLAEWRGEDLAGRRLLVGLEQGAGDMIQAARFLPVLAGRGARVIVEAPDALAGLLATVDGVESVVAPGAWAAARATCHIRAFSLPYRLGLRFADLAATAGPYLRVPPRTPTPPALPPGGQGPCVGLCWSGNPDFTENAVRAAPLAAFAPLTAVEGLTFFSLQKGPAVAELAASGLPVIDLDPWLVDYAATAAAMARLDMVVTTDTSVAHLAGALGRPCLLLLAAHCDWRWGIGRETSPWYPSLRLLRQERLGDWRAPVARAAALLAGLRRGTDTRGPEST	failed
MPPLRQTKTWVDRNGSAHVELSPTVPPQTPKRHMRIQSPMEISWSEAVREGGEHSARRCGDMAVSALAKPNPIIDDDPEGNPDVCMYTWIVECPGATAVLLWINGVFDHERIEESEMTRLEGSDLWILSLRMPSDWRASYTVNAWSGDGVAPWREAGDRMHIRKAAMSGGRPDSRAMGHIMDSSLVEGPDALPDCWVAASTSVKVVEETVAGEHFWFYEAPVKAPLLVLFDGQHWNNSMNLPAQVDAAIAIGLLPPVSLLMIDSVNTERRWDSVGVPGGQVDVLIDALLPHVRETYNVSARGEDTIVTGASFGGLASLWALALSDGEVGHAIAQSPSLWRFNVADALSAAEQWSSIHLQAGKYEGEMLRLSHQLAEDLSGDIREVRVRGVHGGHDWAWWRVHMLTELTRLLKTL	failed
MPPMHELTIEGLGPCEVEEGTRLVRAIEDCGAAVGHRCGGQSQCTTCRVEFAAGEPPVMTEAEYDKLTDIGRLGEMRLACQIVVDRDMTLTPLMTVEDQGWDDAGPEPALMVEPDAEWFSIETLEQR	failed
MPPRRRPHAGLTLPRILILNLLKALATISSLTMLSRITGLVREILIARAFGASDMTDAFNVAFRIPNLLRRIFAEGAFSQAFVPILNEYHGKRGHDETMSLVDAVATVMTWVLAAVSLLGVIGAPIVMTVVATGFRGDSETYNAAVFMTRVMFPYIGLISMVALASGILNTWRNFAVPAFTPVLLNLCLIVAALFVGPHMSQPIYAQAWGVLVGGVLQLVIQVPAMRKLGVMPRVSLNLRAAWANPGVRRVITQMLPALLAVSVAQISLIINTNIASRLGAGAVSYITYADRLMEFPTALLGVALGTILLPSLSRASAEDNREEYSGLLDWGLRLTFLLALPCAAGLMLFGTPITSVLFHYGRFDAHAVEMTQQALTTYGVGLLALILIKILTPGFYARQDIRTPVKIAILVLIITQASNYVFVPMLQHAGLPLSISFGATVNALLLFYGLRRRGYYHPAPGWGLFLLRLVAAMLILSGMLLWFARNFDWIALGATPGLRIALMGACLVLAATVYFGTLWLMGLRYSSFRRRAG	failed
MPQAKKRTSTKRKGNKKTNKKKQNETPLRYIFSIIVVILIILGAFQLGIIGRMIDSFFNYLFGMSRYLTYILVLIATIFITYSKQIPRTRRSIGAIVLQLALLFIAQLYFHFSHNITSQREPVLSFVYKAYEQTHFPNFGGGLIGFYLLKLFIPLISIVGVIIITILLLASSFILLLNLRHRDVTKSLFDNLKSSSNHASESIKQKREQNKIKKEEKAQLKEAKIERKKQKKSRQNNNVIKDVSDFPEISQSDDIPIYGHNEQEDKRPNTANQRQKRVLDNEQFQQSLPSTKNQSINNNQPSTTAENNQQQSQAEGSISEAGEEANIEYTVPPLSLLKQPTKQKTTSKAEVQRKGQVLESTLKNFGVNAKVTQIKIGPAVTQYEIQPAQGVKVSKIVNLHNDIALALAAKDVRIEAPIPGRSAVGIEVPNDKISLVTLKEVLEDKFPSKYKLEVGIGRDISGDPISIQLNEMPHLLVAGSTGSGKSVCINGIITSILLNTKPHEVKLMLIDPKMVELNVYNGIPHLLIPVVTNPHKASQALEKIVSEMERRYDLFQHSSTRNIEGYNQYIRKQNEELDEKQPELPYIVVIVDELADLMMVAGKEVENAIQRITQMARAAGIHLIVATQRPSVDVITGIIKNNIPSRIAFAVSSQTDSRTIIGAGGAEKLLGKGDMLYVGNGESTTTRIQGAFLSDQEVQDVVNYVVEQQKANYVKEMEPDAPVDKSEMKSEDALYDEAYLFVIEKQKASTSLLQRQFRIGYNRASRLMDDLERNQVIGPQKGSKPRQILVDLENDEV	failed
MPQDPTERRVVVTGPPRRARRAFDYYRPRTEIDEQTTLGHTYVRSLMRSQLRAGLAVFAVLVLLVGPLPLVFAAIPDARRLTWAVLGFCLYAPLVLLARWYVRRAERNERDFVRLVEDR	failed
